Experimental data reported in patent US20220288219A1 (MYTHIC THERAPEUTICS, published 2022).

Key:
[1] = biological target: T1, cell surface CD22 on Ramos (CD22+) cells (human, UniProt P20273 20-847); experiment: flow cytometry, antibody titration on Ramos (CD22+) cells, AF488 anti-human IgG
T1 construct: whole, on cells; also called CD22 on WSU-DLCL2, MHH-PREB-1 and Raji cells
T1 sequence (looked up): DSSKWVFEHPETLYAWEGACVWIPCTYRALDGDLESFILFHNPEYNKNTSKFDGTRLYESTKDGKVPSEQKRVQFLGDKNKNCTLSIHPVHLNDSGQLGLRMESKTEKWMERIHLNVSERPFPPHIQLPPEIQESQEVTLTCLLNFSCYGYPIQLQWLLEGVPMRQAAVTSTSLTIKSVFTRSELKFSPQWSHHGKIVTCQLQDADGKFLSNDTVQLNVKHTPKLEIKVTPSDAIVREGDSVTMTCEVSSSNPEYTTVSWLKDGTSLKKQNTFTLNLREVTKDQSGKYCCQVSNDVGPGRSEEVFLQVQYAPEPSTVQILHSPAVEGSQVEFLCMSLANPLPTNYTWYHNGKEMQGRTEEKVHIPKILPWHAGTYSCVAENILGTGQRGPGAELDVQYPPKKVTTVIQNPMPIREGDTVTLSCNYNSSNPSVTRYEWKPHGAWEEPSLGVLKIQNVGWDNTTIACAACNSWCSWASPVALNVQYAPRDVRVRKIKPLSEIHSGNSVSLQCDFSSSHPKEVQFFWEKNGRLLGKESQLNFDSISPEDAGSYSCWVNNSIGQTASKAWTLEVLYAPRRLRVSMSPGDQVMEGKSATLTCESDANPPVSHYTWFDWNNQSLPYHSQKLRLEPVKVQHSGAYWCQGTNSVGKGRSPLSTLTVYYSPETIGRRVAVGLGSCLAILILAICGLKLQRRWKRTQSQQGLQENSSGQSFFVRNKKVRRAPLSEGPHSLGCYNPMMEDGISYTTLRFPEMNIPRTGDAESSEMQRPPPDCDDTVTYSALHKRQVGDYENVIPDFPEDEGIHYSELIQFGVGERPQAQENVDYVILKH
Protocol: 100,000 cells per well were resuspended in 900 μL FC buffer in a 96 well deep well plate. Pinatuzumab, Inotuzumab, and pH engineered antibody variants were serially diluted at a 1:3 dilution. 100 μL of diluted antibody was added to each well with final concentration ranging from ˜100 nM to 0.024 pM and incubated for 2 hours at 4° C. Post incubation, the cells were spun at 2000 rpm for 2 min and supernatant was discarded. Cells were washed twice with 500 μL of ice-cold FC buffer and resuspended with 100 μL of FC buffer. The cells were then transferred from the deep well plate to 96 well round bottom plate, spun at 2000 rpm for 2 min and incubated with 100 μL of 10 μg/mL Alexa Fluor 488 conjugated goat anti-human IgG secondary antibody (ThermoFisher Scientific, A11013) for 30 min. Post incubation, cells were washed with FC buffer and resuspended in 100 μL of FC buffer to read on a BD Accuri C6 flow cytometer. Binding affinity was measured as a dissociation constant KD by GraphPad Prism assuming Michaelis-Menten binding kinetics. MYT1331, MYT4405 and MYT4424 show high affinity binding to cell surface CD22 on Ramos cells in the pM-nM range confirming that variants created through pH engineering can retain functionally appropriate affinities as compared to their corresponding starting ABPCs (e.g., inotuzumab or pinatuzumab).

[2] = biological target: T2, CD22 (Acro Biosystems, Cat #CD2-H52H8) (UniProt P20273 20-687); experiment: BLI, IgG on anti-human Fc sensor, 50 nM CD22
T2 construct: soluble analyte, 50 nM in BLI; also called Acro Biosystems antigen
T2 sequence (looked up): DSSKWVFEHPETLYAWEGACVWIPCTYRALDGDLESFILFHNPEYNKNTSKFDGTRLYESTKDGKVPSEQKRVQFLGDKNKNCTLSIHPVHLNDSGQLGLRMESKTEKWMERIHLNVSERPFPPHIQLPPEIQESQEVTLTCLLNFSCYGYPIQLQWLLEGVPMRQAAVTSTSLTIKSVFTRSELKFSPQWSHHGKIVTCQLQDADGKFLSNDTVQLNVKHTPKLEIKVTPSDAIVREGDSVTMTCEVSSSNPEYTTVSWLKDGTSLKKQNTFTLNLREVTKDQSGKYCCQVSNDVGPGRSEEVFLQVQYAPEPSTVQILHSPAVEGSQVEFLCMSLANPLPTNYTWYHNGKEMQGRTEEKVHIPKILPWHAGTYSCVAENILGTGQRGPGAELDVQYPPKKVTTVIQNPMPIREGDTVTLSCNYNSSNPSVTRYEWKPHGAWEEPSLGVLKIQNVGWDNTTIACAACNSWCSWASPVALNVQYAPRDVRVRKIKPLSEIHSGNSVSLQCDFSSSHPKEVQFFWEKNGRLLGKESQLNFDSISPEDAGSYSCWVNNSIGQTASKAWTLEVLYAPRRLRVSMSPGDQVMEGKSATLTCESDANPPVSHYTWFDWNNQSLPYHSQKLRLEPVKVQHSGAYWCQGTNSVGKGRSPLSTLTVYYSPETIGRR

[3] = biological target: T3, CD22 Protein (His Tag), Sino Biological Cat. No. 11958-H08H (UniProt P20273 20-687); experiment: BLI, IgG on anti-human Fc sensor, 50 nM CD22
T3 construct: soluble analyte, 50 nM in BLI; also called Sino Biological antigen
T3 sequence (looked up): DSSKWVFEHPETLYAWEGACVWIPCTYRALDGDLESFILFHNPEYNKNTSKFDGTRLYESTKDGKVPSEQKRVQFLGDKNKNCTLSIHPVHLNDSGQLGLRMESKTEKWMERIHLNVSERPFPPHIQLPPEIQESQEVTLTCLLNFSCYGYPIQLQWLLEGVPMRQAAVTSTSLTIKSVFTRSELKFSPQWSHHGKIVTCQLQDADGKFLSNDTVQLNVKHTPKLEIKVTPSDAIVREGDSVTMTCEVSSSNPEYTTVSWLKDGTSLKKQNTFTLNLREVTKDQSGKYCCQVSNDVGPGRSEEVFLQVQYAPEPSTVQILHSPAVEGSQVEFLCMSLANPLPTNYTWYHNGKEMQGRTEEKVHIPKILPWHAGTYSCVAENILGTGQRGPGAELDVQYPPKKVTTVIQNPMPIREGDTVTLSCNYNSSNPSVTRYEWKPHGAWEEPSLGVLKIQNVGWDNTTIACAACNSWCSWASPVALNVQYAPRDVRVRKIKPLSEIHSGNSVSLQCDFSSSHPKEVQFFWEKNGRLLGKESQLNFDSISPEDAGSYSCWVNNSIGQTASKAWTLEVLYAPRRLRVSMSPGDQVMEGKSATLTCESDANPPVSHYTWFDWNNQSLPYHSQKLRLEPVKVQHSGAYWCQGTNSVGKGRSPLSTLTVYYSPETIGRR

B1: MYT4405 (antibody, V domains shown)
VH: EVQLVQSGAEVKKPGASVKVSCKASGYRFTHYWIHWVRQAPGQGLEWIGGINPGNNYATYRRKFQGRVTMTADTSTSTVYMELSSLRSEDTAVYYCTREGYGHYGAWFAYWGQGTLVTVSS
VL: DVQVTQSPSSLSASVGDRVTITCRSSQSLANSYGNTFLSWYLHKPGKAPQLLIYGISNRFSGVPDRFSGSGSGTDFTLTISSLQPEDFATYYCLQGTHQPYTFGQGTKVEIK
notes: inotuzumab VH N31H+N103H; tie by order
IC50 [1]: 240 pM

B2: MYT0550 (antibody, V domains shown)
VH: EVQLVQSGAEVKKPGASVKVSCKASGYRFTNYWIHWVRQAPGQGLEWIGGINPGNNYATYRRKFQGRVTMTADTSTSTVYMELSSLRSEDTAVYYCTREGYGHYGAWFAYWGQGTLVTVSS
VL: DVQVTQSPSSLSASVGDRVTITCRSSQSLANSYGNTFLSWYLHKPGKAPQLLIYGISNRFSGVPDRFSGSGSGTDFTLTISSLQPEDFATYYCLQGTHQPYTFGQGTKVEIK
notes: inotuzumab VH N103H; tie by order
binding result [2]: binds
binding result [3]: binds

B3: MYT0520 (antibody, V domains shown)
VH: EVQLVQSGAEVKKPGASVKVSCKASGHRFTNYWIHWVRQAPGQGLEWIGGINPGNNYATYRRKFQGRVTMTADTSTSTVYMELSSLRSEDTAVYYCTREGYGNYGAWFAYWGQGTLVTVSS
VL: DVQVTQSPSSLSASVGDRVTITCRSSQSLANSYGNTFLSWYLHKPGKAPQLLIYGISNRFSGVPDRFSGSGSGTDFTLTISSLQPEDFATYYCLQGTHQPYTFGQGTKVEIK
notes: inotuzumab VH Y27H; tie by order
binding result [2]: binds
binding result [3]: binds

B4: MYT0536 (antibody, V domains shown)
VH: EVQLVQSGAEVKKPGASVKVSCKASGYRFTNYWIHWVRQAPGQGLEWIGGINPGNNHATYRRKFQGRVTMTADTSTSTVYMELSSLRSEDTAVYYCTREGYGNYGAWFAYWGQGTLVTVSS
VL: DVQVTQSPSSLSASVGDRVTITCRSSQSLANSYGNTFLSWYLHKPGKAPQLLIYGISNRFSGVPDRFSGSGSGTDFTLTISSLQPEDFATYYCLQGTHQPYTFGQGTKVEIK
notes: inotuzumab VH Y57H; tie by order
binding result [2]: binds
binding result [3]: binds

B5: MYT4424 (antibody, V domains shown)
VH: EVQLVQSGAEVKKPGASVKVSCKASGYRFTHYWIHWVRQAPGQGLEWIGGINPGNNYAHYRRKFQGRVTMTADTSTSTVYMELSSLRSEDTAVYYCTREGYGHYGAWFAYWGQGTLVTVSS
VL: DVQVTQSPSSLSASVGDRVTITCRSSQSLANSYGNTFLSWYLHKPGKAPQLLIYGISNRFSGVPDRFSGSGSGTDFTLTISSLQPEDFATYYCLQGTHQPYTFGQGTKVEIK
notes: inotuzumab VH N31H+T59H+N103H; tie by order
IC50 [1]: 115 pM

B6: MYT0544 (antibody, V domains shown)
VH: EVQLVQSGAEVKKPGASVKVSCKASGYRFTNYWIHWVRQAPGQGLEWIGGINPGNNYATYRRKFQGRVTMTADTSTSTVYMELSSLRSEDTAVYYCHREGYGNYGAWFAYWGQGTLVTVSS
VL: DVQVTQSPSSLSASVGDRVTITCRSSQSLANSYGNTFLSWYLHKPGKAPQLLIYGISNRFSGVPDRFSGSGSGTDFTLTISSLQPEDFATYYCLQGTHQPYTFGQGTKVEIK
notes: inotuzumab VH T97H; tie by order
binding result [2]: binds
binding result [3]: binds

B7: MYT0526 (antibody, V domains shown)
VH: EVQLVQSGAEVKKPGASVKVSCKASGYRFTNYHIHWVRQAPGQGLEWIGGINPGNNYATYRRKFQGRVTMTADTSTSTVYMELSSLRSEDTAVYYCTREGYGNYGAWFAYWGQGTLVTVSS
VL: DVQVTQSPSSLSASVGDRVTITCRSSQSLANSYGNTFLSWYLHKPGKAPQLLIYGISNRFSGVPDRFSGSGSGTDFTLTISSLQPEDFATYYCLQGTHQPYTFGQGTKVEIK
notes: inotuzumab VH W33H; tie by order
binding result [2]: binds
binding result [3]: binds

B8: inotuzumab (antibody, V domains shown)
VH: EVQLVQSGAEVKKPGASVKVSCKASGYRFTNYWIHWVRQAPGQGLEWIGGINPGNNYATYRRKFQGRVTMTADTSTSTVYMELSSLRSEDTAVYYCTREGYGNYGAWFAYWGQGTLVTVSS
VL: DVQVTQSPSSLSASVGDRVTITCRSSQSLANSYGNTFLSWYLHKPGKAPQLLIYGISNRFSGVPDRFSGSGSGTDFTLTISSLQPEDFATYYCLQGTHQPYTFGQGTKVEIK
notes: IgG from Expi293, captured by anti-human Fc; entries headed heavy/light chain hold only the variable domains; also called MYT0518; INOTUZUMAB starting ABPC
IC50 [1]: 75 pM

B9: pinatuzumab (antibody, V domains shown)
VH: EVQLVESGGGLVQPGGSLRLSCAASGYEFSRSWMNWVRQAPGKGLEWVGRIYPGDGDTNYSGKFKGRFTISADTSKNTAYLQMNSLRAEDTAVYYCARDGSSWDWYFDVWGQGTLVTVSS
VL: DIQMTQSPSSLSASVGDRVTITCRSSQSIVHSVGNTFLEWYQQKPGKAPKLLIYKVSNRFSGVPSRFSGSGSGTDFTLTISSLQPEDFATYYCFQGSQFPYTFGQGTKVEIK
notes: IgG from Expi293; also called MYT1293; PINATUZUMAB starting ABPC
IC50 [1]: 362 pM

B10: MYT1331 (antibody, V domains shown)
VH: EVQLVESGGGLVQPGGSLRLSCAASGYEFSRSWMNWVRQAPGKGLEWVGRIYPGDGDTNYSGKFKGRFTISADTSKNTAYLQMNSLRAEDTAVYYCARDGSSWDWYHDVWGQGTLVTVSS
VL: DIQMTQSPSSLSASVGDRVTITCRSSQSIVHSVGNTFLEWYQQKPGKAPKLLIYKVSNRFSGVPSRFSGSGSGTDFTLTISSLQPEDFATYYCFQGSQFPYTFGQGTKVEIK
notes: pinatuzumab VH F107H; tie by order
IC50 [1]: 395 pM
